Data taken from the RNAGym collection of RNA variant scans (doi:10.1073/pnas.2313332121).

B1: TPR t1 (parent)
chain: GACCAAUCUGCCCUCAGAGCUCGAGAACAUCUUCGGAUGCAGAGGAGGCAGGCUUCGGUGGCGCGAUAGCGCCAACGUCCUCAACCUCCAAUGCAUCCCACCACAUGAUGAUGCCUGAAGAGCCUUGGUUUUUUG

Variants of: B1
Assay: polymerase ribozyme fitness, log enrichment relative to wild type (log ratio); higher = more active; in vitro selection for triplet polymerase activity
Outline: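 Mutant libraries were PCR-built and transcribed for each subunit of a heterodimeric triplet polymerase ribozyme and selected for one round in triplicate at −7 °C, frozen, before gel excision of extended constructs and streptavidin-bead capture. Input and output libraries were Illumina-sequenced, keeping genotypes with ≥10 input reads and ≥1 read per output. Fitness is a logarithmic ratio of genotype to wild-type enrichment, in base 2, using inverse-variance-weighted replicate averages.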

Row | Variant | polymerase ribozyme fitness (log ratio)
1 | G19U C56U | -2.37
2 | G17C C28U C85A G110A G120C | -2.19
3 | C94U U130G | -1.07
4 | C82A G110C | -3.97
5 | U9C G61A | 0.487
6 | G17A | -2.59
7 | C11A C13U | -1.75
8 | C56G C124A | 1.73
9 | U30A G39C C49A | -5.37
10 | C53A C72U | -0.465
11 | G69A U112C | -0.685
12 | A24G C88A C115A | -1.84
13 | U38A G42U U59A C88G A95U C114A | -4.56
14 | A50U G57C A119U | -1.85
15 | C4U C115A | -1.18
16 | U9G G63U G128C | -3.23
17 | C70U A118U | 0.0135
18 | C73U C114U | -1.31
19 | G45A A68G U112A | -4.04
20 | U38G C80U C86U | -1.86
21 | C15U A43C G69A | -4.44
22 | G61U C85G | -2.33
23 | A26U U54C C86G A121U | -0.876
24 | A50U G93C | -1.95

Row | Variant | polymerase ribozyme fitness (log ratio)
25 | A91U U112G | -1.73
26 | U9G G93C A100U A118G | -1.35
27 | U7C A91G C123U U126A | 0.505
28 | C12A G117C | -3
29 | C3U U9A G69C C82A | -1.37
30 | G10A C34A C40U G71C G77U C88A G113A | -6.08
31 | G47C C86A | -0.437
32 | C12A G17U | -3.81
33 | U112A G113U | -0.351
34 | A43U G45U | -1.71
35 | C80G G110C | -6.58
36 | C13U C56A C114U | -1.73
37 | G39C C115A | -1.12
38 | C8U C53A C99U C101G | -3.52
39 | U96G A111U | -4.9
40 | U7A C64A U106C | -5.95
41 | G69U A119U | 0.577
42 | C8U A37G G61U U130A | -0.107
43 | G39A A50U G63C | -2.66
44 | U9A G39U G45U | -0.618
45 | C40G G51U U87A A90G G117U | -5.66
46 | C53U G93A A103C | -5.92
47 | C8G A95G | 0.646
48 | A66U C124U | 0.294

Row | Variant | polymerase ribozyme fitness (log ratio)
49 | C40G G71U G117A | -2.71
50 | G42A G44A G47U C64U | -4.22
51 | C28G C53G U59A C73A C89A U109G A111U G120A | -6.66
52 | C8U C13G A29U G122A | -2.49
53 | U55A C73U | 0.172
54 | A111U G120A | -3.85
55 | G113C C123A | -2.82
56 | C15U C62U | -1.95
57 | G45U G63C C104U | -0.927
58 | C11U U78C C94U | -1.61
59 | C85U U92C G127U G128A | -6.04
60 | A37U G39U C104U | -1.36
61 | A27U G120U | -2.65
62 | A6U G61C U78G U130C | -3.92
63 | U55A G77C C104A | -1.93
64 | A74U C115U A118U C124U | -0.812
65 | C3U G44C A46U G110A | -2.98
66 | A26U A50U G57C | -4.64
67 | C28U C72U U112A G122A U129A | -4.79
68 | C12G A18G A74U U78G U87A | -4.81
69 | C15U U96A | -1.57
70 | C11U C64A | -4.93
71 | A111C U112A | -1.52
72 | U32G G69U | -4.52

Row | Variant | polymerase ribozyme fitness (log ratio)
73 | U54C U59C A119G | 1.11
74 | C11A G17U U112A U131G | -3.56
75 | C3U C53U G57C U59A C88G | -2.35
76 | C79A C123A | -0.392
77 | C12G C13A G36A G47C C86U C114G | -6.13
78 | C53U G63A U96A | -2.3
79 | A18U G71A G93U U131G | -5.74
80 | C70G C98U G117A | -5.6
81 | C12U G39A C56A G71A | -4.31
82 | G47C G48U | -2.71
83 | C13A A16G U133G | -2.57
84 | G10A C62A | -0.929
85 | C12A C22A A46U C79U | -6.1
86 | C4G C28A C40G G48U C49G G63A U96G C114G U116G | -6.86
87 | C102A U106A C115A U129A | -4.5
88 | U7A C11G G44U A50G C94U U96A G117A | -1.92
89 | A84U C94G | -1.24
90 | U9G C11A G39C C72G G77C A118U | -2.83
91 | G93A A105C | -3.13
92 | C102A G128C U132G G135U | -3.41
93 | A41U G42C | -2.5
94 | C11A G71U A91G A121U | 0.632
95 | A5U A6C C49G U54A | -0.438
96 | G42U C76U A84U C88U | -2.62

Row | Variant | polymerase ribozyme fitness (log ratio)
97 | G61U C101U | 0.0554
98 | A2U G63A | -2.23
99 | G35U G61A C85A C114G U131G | -6.32
100 | A43C A50G G61A C115A U116C | -4.2
101 | C86A U106A | 0.119
102 | C4A A18C G42U C86G C114G | -3.47
103 | G63C C123U | 0.859
104 | C11G U106G | -0.452
105 | G69A C98A A121U | -6.1
106 | C79G C101U | -1.49
107 | C49U | -0.473
108 | C20A C34U C72U C76A C82A A121C G135U | -6.49
109 | C80G A100C U131A | -5.8
110 | C56A U87A U92A G120A A121U U131A | -4.2
111 | C8G G107U | -5
112 | G36C G52A | -1.54
113 | A50U G110A | -2.67
114 | A27U C70U | -3.44
115 | G60A C94A G110U | -3.31
116 | G61U C101G U106A | 0.513
117 | U33A G44A C72A U112G | -6.21
118 | A41C G48A G60U G135U | -2.21
119 | G45U U116C | -1.67
120 | C11U A26U C88A | -4.34

Row | Variant | polymerase ribozyme fitness (log ratio)
121 | C73U A121G | 2.17
122 | U7G G10C G45A G47A U59G A66C G77A | -2.15
123 | C40G C62U U87G | -1.61
124 | C64A G117A | -6.29
125 | C12A C49U G113C U133C | -3.24
126 | A6U G93A | -0.555
127 | U87G G110U | -0.69
128 | C28A U32C | -3.9
129 | C8U C70U C79G C94G | -3.8
130 | G42C G128U U130A G135U | -4.23
131 | A27U G36C G135U | -5.51
132 | U7C C53U G71A U92G C114U | -2.79
133 | C40U C53U A66G | -1.67
134 | C20A G127C | -2.94
135 | U14G C62U C73U | -2.29
136 | U7G C15G C88G U96A A108G C124A | -5.93
137 | C64U A100U | -0.493
138 | G10A U38G | 0.0174
139 | C28U C56G G57C | -2.34
140 | C22G A37U U87G | -3.6
141 | G77C C124U G127A U129A | -0.0326
142 | C31U U112A | -3.16
143 | A37G A111C C124G | 0.322
144 | C8G G57A A84U G120U | 0.672

Row | Variant | polymerase ribozyme fitness (log ratio)
145 | A41C C86A U106A | -1.11
146 | G45U G57U A118U | -0.288
147 | C72G C104A | -1.71
148 | G42A A46U G48A A66C A118U | -5.21
149 | U54C C70A C82A G128U | -5.17
150 | A37G G48A C56G G93A G110C | -5.64
151 | C88A G113A C124A G135U | -1.79
152 | A6U C11G U55C | -0.352
153 | G69U U78G U112A | 2.31
154 | C3U C31G G120C | -6.61
155 | C11U A74U G113A | -2.56
156 | U59G C72U C82A G110A | -1.21
157 | C49A A50U C62U C88G C123U | -0.464
158 | C53A G63A C115U | -3.96
159 | C11A C28G C80U | -3.39
160 | C13A C76U C82A A103U G110C C114A G117C C123U | -7
161 | A18U C79G G110A | -6
162 | C3G C62U G93U C98U G128C | -2.79
163 | G42U G45A G63C | -1.98
164 | U9A C62U | 0.575
165 | U33A G48C G113C | -5.71
166 | C101U G117U | -1.13
167 | C62U C123A | 0.98
